The text below walks through data of the supplement of paper PMC6755084.

The chains are these.
B1: minF1; the commonest letter at each place (parent)
chain: GAGACCGCAACTGAAAAGTTGTTATCAGAAATGGATGGGTTGAATTTCTGCACGTAGAAGCAAAAGGC

In this data set the parent is B1. Nature of the data set: fraction ligated after 30 min (ligated reads / total reads); higher = more ligase activity. The following applies: with F1*subA RNA substrate (template-directed ligation), 42 °C. In a few lines: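 Minimized ligase ribozyme variants came from oligo-pool templates that were PCR-amplified, T7-transcribed and gel-purified. Their ligated and unligated RNAs were separated on gels before barcoded reverse transcription and MiSeq sequencing, with core bases kept only at quality ≥30. The fraction ligated for each variant is its ligated reads as a proportion of all its reads.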
Take GAGACCGCAACTGAAAAGTTGTTAGCAGAAATGTATGGGTTGAATTTCTGCACGTAGAAGCAAAAGGC [T25G G34T]: the fraction ligated is 0.0038.
The same measure for GAGACCGCAACTGAAAAGTTGTTAGCAGAAATGCATGGGTTGAATTTCTGCACGTAGAAGCAAAAGGC [T25G G34C]: 0.00366; for GAGACCGCAACTGAAAAGTTGTTAGCAGAAATGAATGGGTTGAATTTCTGCACGTAGAAGCAAAAGGC [T25G G34A]: 0.00816.
GAGACCGCAACTGAAAAGTTGTTAGCAGACATGGATGGGTTGAATTTCTGCACGTAGAAGCAAAAGGC [T25G A30C]: the fraction ligated stood at 0.0106.
Under GAGACCGCAACTGAAAAGTTGTTAGCAGATATGGATGGGTTGAATTTCTGCACGTAGAAGCAAAAGGC [T25G A30T] stands 0.0162.
The same measure for GAGACCGCAACTGAAAAGTTGTTAGCAGAGATGGATGGGTTGAATTTCTGCACGTAGAAGCAAAAGGC [T25G A30G]: 0.0222; for GAGACCGCAACTGAAAAGTTGTTAGCAGAAATTGATGGGTTGAATTTCTGCACGTAGAAGCAAAAGGC [T25G G33T]: 0.0188; for GAGACCGCAACTGAAAAGTTGTTAGCAGAAATAGATGGGTTGAATTTCTGCACGTAGAAGCAAAAGGC [T25G G33A]: 0.0162.
The same measure for GAGACCGCAACTGAAAAGTTGTTAGCAGAAATCGATGGGTTGAATTTCTGCACGTAGAAGCAAAAGGC [T25G G33C]: 0.00397.
Consider GAGACCGCAACTGAAAAGTTGTTAGCAGAAATGGAAGGGTTGAATTTCTGCACGTAGAAGCAAAAGGC [T25G T36A], for which the fraction ligated stood at 0.0107.
The same measure for GAGACCGCAACTGAAAAGTTGTTAGCAGAAATGGACGGGTTGAATTTCTGCACGTAGAAGCAAAAGGC [T25G T36C]: 0.00768; for GAGACCGCAACTGAAAAGTTGTTAGCAGAAATGGATGGGTTTAATTTCTGCACGTAGAAGCAAAAGGC [T25G G42T]: 0.000854.
With GAGACCGCAACTGAAAAGTTGTTAGCAGAAATGGATGGGTTCAATTTCTGCACGTAGAAGCAAAAGGC [T25G G42C], the fraction ligated was 0.004.
Under GAGACCGCAACTGAAAAGTTGTTAGCAGAAATGGATGGGTTAAATTTCTGCACGTAGAAGCAAAAGGC [T25G G42A] stands 0.00421; under GAGACCGCAACTGAAAAGTTGTTAGTAGAAATGGATGGGTTGAATTTCTGCACGTAGAAGCAAAAGGC [T25G C26T], 0.00381.
GAGACCGCAACTGAAAAGTTGTTAGAAGAAATGGATGGGTTGAATTTCTGCACGTAGAAGCAAAAGGC [T25G C26A]: the fraction ligated was 0.00653.
The same measure for GAGACCGCAACTGAAAAGTTGTTAGGAGAAATGGATGGGTTGAATTTCTGCACGTAGAAGCAAAAGGC [T25G C26G]: 0.00725; for GAGACCGCAACTGAAAAGTTGTTAGCAGAATTGGATGGGTTGAATTTCTGCACGTAGAAGCAAAAGGC [T25G A31T]: 0.0111; for GAGACCGCAACTGAAAAGTTGTTAGCAGAAGTGGATGGGTTGAATTTCTGCACGTAGAAGCAAAAGGC [T25G A31G]: 0.0115.
As to GAGACCGCAACTGAAAAGTTGTTAGCAGAACTGGATGGGTTGAATTTCTGCACGTAGAAGCAAAAGGC [T25G A31C], the fraction ligated is 0.0154.
The same measure for GAGACCGCAACTGAAAAGTTGTTAGCATAAATGGATGGGTTGAATTTCTGCACGTAGAAGCAAAAGGC [T25G G28T]: 0.0241.
Under GAGACCGCAACTGAAAAGTTGTTAGCACAAATGGATGGGTTGAATTTCTGCACGTAGAAGCAAAAGGC [T25G G28C] stands 0.0182; under GAGACCGCAACTGAAAAGTTGTTAGCAAAAATGGATGGGTTGAATTTCTGCACGTAGAAGCAAAAGGC [T25G G28A], 0.0158; under GAGACCGCAACTGAAAAGTTGTTAGCAGAAATGGGTGGGTTGAATTTCTGCACGTAGAAGCAAAAGGC [T25G A35G], 0.00379.
Under GAGACCGCAACTGAAAAGTTGTTAGCAGAAATGGTTGGGTTGAATTTCTGCACGTAGAAGCAAAAGGC [T25G A35T] stands 0.396; under GAGACCGCAACTGAAAAGTTGTTAGCAGAAATGGCTGGGTTGAATTTCTGCACGTAGAAGCAAAAGGC [T25G A35C], 0.845; under GAGACCGCAACTGAAAAGTTGTTAGCAGAAATGGATCGGTTGAATTTCTGCACGTAGAAGCAAAAGGC [T25G G37C], 0.00475.
Turning to GAGACCGCAACTGAAAAGTTGTTAGCAGAAATGGATTGGTTGAATTTCTGCACGTAGAAGCAAAAGGC [T25G G37T], the fraction ligated was 0.00311.
Under GAGACCGCAACTGAAAAGTTGTTAGCAGAAATGGATAGGTTGAATTTCTGCACGTAGAAGCAAAAGGC [T25G G37A] stands 0.00178; under GAGACCGCAACTGAAAAGTTGTTAGCAGAAATGGATGGGTTGCATTTCTGCACGTAGAAGCAAAAGGC [T25G A43C], 0.00324.
Under GAGACCGCAACTGAAAAGTTGTTAGCAGAAATGGATGGGTTGTATTTCTGCACGTAGAAGCAAAAGGC [T25G A43T] stands 0.00824; under GAGACCGCAACTGAAAAGTTGTTAGCAGAAATGGATGGGTTGGATTTCTGCACGTAGAAGCAAAAGGC [T25G A43G], 0.00372; under GAGACCGCAACTGAAAAGTTGTTAGCAGAAAGGGATGGGTTGAATTTCTGCACGTAGAAGCAAAAGGC [T25G T32G], 0.00886.
The same measure for GAGACCGCAACTGAAAAGTTGTTAGCAGAAACGGATGGGTTGAATTTCTGCACGTAGAAGCAAAAGGC [T25G T32C]: 0.00349; for GAGACCGCAACTGAAAAGTTGTTAGCAGAAAAGGATGGGTTGAATTTCTGCACGTAGAAGCAAAAGGC [T25G T32A]: 0.00223; for GAGACCGCAACTGAAAAGTTGTTAGCAGGAATGGATGGGTTGAATTTCTGCACGTAGAAGCAAAAGGC [T25G A29G]: 0.0196.
For GAGACCGCAACTGAAAAGTTGTTAGCAGTAATGGATGGGTTGAATTTCTGCACGTAGAAGCAAAAGGC [T25G A29T], the fraction ligated was found to be 0.0188.
Under GAGACCGCAACTGAAAAGTTGTTAGCAGAAATGGATGGGTTGAGTTTCTGCACGTAGAAGCAAAAGGC [T25G A44G] stands 0.00956; under GAGACCGCAACTGAAAAGTTGTTAGCAGAAATGGATGGGTTGATTTTCTGCACGTAGAAGCAAAAGGC [T25G A44T], 0.00667; under GAGACCGCAACTGAAAAGTTGTTAGCAGAAATGGATGGGTTGACTTTCTGCACGTAGAAGCAAAAGGC [T25G A44C], 0.00312.
